Read-outs that look alike come from different tables or passages of the source.
B1: Clone C VNAR-hFc fusion (Fc fusion, not shown: a dimerising Fc or GST)
chain: ARVDQTPQTITKETGESLTINCVLRDSNCALSSTYWYRKKSGSTNEENISKGGRYVETVNSGSKSFSLRINDLTVEDSGTYRCNVVQYPSYNNYFWCDVYGDGTAVTVN
notes: bivalent VNAR-Fc; also called Clone C-hFc
B2: Clone C variant 13 VNAR-hFc (Fc fusion, not shown: a dimerising Fc or GST)
chain: ARVDQTPQTITKETGESLTINCVLRDSNCALSSTYWYRKKSGSTNEENISKGGRYVETVNSGSKSFSLRINDLTVEDSGTYRCNVVQYPQQDNYFWCDVYGDGTAVTVN
notes: also called Clone C v13; Clone C var; 13
B3: Clone C variant 18 VNAR-hFc (Fc fusion, not shown: a dimerising Fc or GST)
chain: ARVDQTPQTITKETGESLTINCVLRDSNCALSSTYWYRKKSGSTNEENISKGGRYVETVNSGSKSFSLRINDLTVEDSGTYRCNVVQYPQYPNYFWCDVYGDGTAVTVN
notes: also called Clone C v18; Clone C var; 18
B4: 8D3 antibody (anti-mouse TfR-1 control; 8D3-hFc formatted antibody) (antibody, V domains shown)
VH: EVQLVESGGGLVQPGNSLTLSCVASGFTFSNYGMHWIRQAPKKGLEWIAMIYYDSSKMNYADTVKGRFTISRDNSKNTLYLEMNSLRSEDTAMYYCAVPTSHYVVDVWGQGVSVTVSS
VL: DIQMTQSPASLSASLEEIVTITCQASQDIGNWLAWYQQKPGKSPQLLIYGATSLADGVPSRFSGSRSGTQFSLKISRVQVEDIGIYYCLQAYNTPWTFGGGTKLELK

Assays:
[1] = biological target: T1, purified WT mTfR-1 (ELISA coat) (mouse, UniProt Q62351 89-763); experiment: ELISA, coated purified WT mTfR1
T1 sequence (Q62351 89-763): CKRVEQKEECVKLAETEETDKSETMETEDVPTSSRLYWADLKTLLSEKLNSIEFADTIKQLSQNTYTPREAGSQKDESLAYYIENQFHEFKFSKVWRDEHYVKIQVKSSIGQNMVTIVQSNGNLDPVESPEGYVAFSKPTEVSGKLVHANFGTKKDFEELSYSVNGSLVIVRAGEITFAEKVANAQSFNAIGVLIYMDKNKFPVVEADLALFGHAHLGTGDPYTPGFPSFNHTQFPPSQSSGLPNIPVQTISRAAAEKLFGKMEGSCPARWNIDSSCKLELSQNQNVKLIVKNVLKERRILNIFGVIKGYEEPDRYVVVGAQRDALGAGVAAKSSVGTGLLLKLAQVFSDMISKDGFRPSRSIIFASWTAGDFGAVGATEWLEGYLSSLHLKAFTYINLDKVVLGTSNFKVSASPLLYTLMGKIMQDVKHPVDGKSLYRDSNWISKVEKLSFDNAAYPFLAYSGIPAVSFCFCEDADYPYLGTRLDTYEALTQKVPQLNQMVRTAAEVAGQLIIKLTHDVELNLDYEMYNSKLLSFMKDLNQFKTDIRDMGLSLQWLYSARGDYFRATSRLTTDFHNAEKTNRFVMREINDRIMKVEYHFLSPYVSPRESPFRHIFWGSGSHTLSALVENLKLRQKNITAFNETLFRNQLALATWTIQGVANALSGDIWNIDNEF
Method: Serial dilutions the VNAR-Fc fusion protein in blocking buffer (PBS-0.1% Tween+2.5% milk) were exposed to pre-blocked Nunc Maxisorp 96-well plates coated with the M1, M2 and M3 mutants at 1 μg/mL. After washing in PBS-0.1% Tween-20, binding of Clone C-hFc fusion was detected using an anti-human IgG (Fc specific) peroxidase antibody (Sigma-Aldrich) and the plates were developed using the chromogenic substrate TMB. Absorbance at 450 nm was recorded using an Envision multi-well reader (Perkin Elmer) and EC50s were calculated by fitting curves (non-linear regression) using GraphPad Prism®.
The binding of Clone C compared to the 8D3 antibody was tested on purified WT mTfR1 in addition to the three mutants by ELISA (FIG. 26).

[2] = biological target: T2, purified mTfR1 mutant M1 (AGS) (mouse, UniProt Q62351 89-763); experiment: ELISA, coated purified mTfR-1
T2 construct: also called N253A
T2 sequence (Q62351 other isoform, or with tags, fused parts or gaps mutant): as the sequence (Q62351 89-763) above, with N165A counted along it

[3] = biological target: T3, purified mTfR1 mutant M2 (NAS) (mouse, UniProt Q62351 89-763); experiment: ELISA, coated purified mTfR-1
T3 construct: also called G254A
T3 sequence (Q62351 other isoform, or with tags, fused parts or gaps mutant): as the sequence (Q62351 89-763) above, with G166A counted along it

[4] = biological target: T4, purified mTfR1 mutant M3 (NGA) (mouse, UniProt Q62351 89-763); experiment: ELISA, coated purified mTfR-1
T4 construct: also called S255A
T4 sequence (Q62351 other isoform, or with tags, fused parts or gaps mutant): as the sequence (Q62351 89-763) above, with S167A counted along it

[5] = biological target: T2, purified mTfR1 mutant M1 (AGS); experiment: ELISA, coated purified mTfR-1; remark: listed apart in the source
[6] = biological target: T1, purified WT mTfR-1 (ELISA coat); experiment: ELISA, coated purified mTfR-1
[7] = biological target: T3, purified mTfR1 mutant M2 (NAS); experiment: ELISA, coated purified mTfR-1; remark: listed apart in the source
[8] = biological target: T4, purified mTfR1 mutant M3 (NGA); experiment: ELISA, coated purified mTfR-1; remark: listed apart in the source
[9] = biological target: T3, purified mTfR1 mutant M2 (NAS); experiment: ELISA, plate coated with purified mTfR-1 mutant M2 (NAS), serial dilution of the binder; y axis Norm. Vmax OD at 650nm

Binder	EC50 [1] [nM]	EC50 [2] [nM]	EC50 [3] [nM]	EC50 [4] [nM]	EC50 [5] [nM]	EC50 [6] [nM]	EC50 [7] [nM]	EC50 [8] [nM]	EC50 (read off the curve) [9] [nM]
B1	65.4								
B2		1.1	13	0.79					
B3		5.9	200	2.6					
B4	11.1				0.35	0.49	0.33	0.51	~4

From patent publication US20210403591A1 (OSSIANIX, published 2021)
